Residue numbers refer to the chain shown, from its start. Names and notes keep the numbering of the source. Values belong to the molecule of their own block, whether it stands above or below them.
What was measured:
[1] = tested on: B16F10.9 cells (MSR1 negative); assay: Flow cytometry binding, MSR1 negative cells; assay type: cell-based, mouse; settings: 10 μg/mL antibody
Experimental: Relative cell surface binding of the anti-MSR1 antibodies to mouse MSR1 expressing cells was determined by flow cytometry using MSR1 positive RAW264.7 cells (ATCC, Catalog #TIB-71) and MSR1 negative B16F10.9 cells (Lin et al. 1998. PNAS 95:8829-8834). For the assay, cells were plated in PBS without calcium and magnesium (VWR Cat #45000-446) and 2% FBS (Saradigm Cat #1500-500) (Staining Buffer) in 96 well V-bottom plates (Axygen Scientific, Cat #P-96-450-V-C-S). To block binding to Fc receptors, RAW264.7 cells were incubated for 30 minutes at 4° C. with 500 μg/mL mouse IgG (Jackson ImmunoResearch, Cat #015-000-003) diluted in staining buffer, while B16F10.9 cells remained in staining buffer. Following Fc receptor blocking, 10 μg/mL of anti-MSR1 antibodies or an isotype control antibody were added to the cells and were subsequently incubated for 30 minutes on ice. For a positive control, a commercial anti-mouse MSR1 (Sino Biological, Cat #50129-R004) antibody was used, while a rabbit IgG antibody (Thermo Scientific, Cat #26102) was used as a negative control. […] Cells were subsequently washed and fixed using a 50% solution of Cytofix (BD Biosciences, Cat #554655) diluted in PBS. […] The signal to noise (S/N) was determined by calculating the ratio of the anti-MSR1 antibodies or the control antibodies MFI to the unstained sample MFI (Table 11).

[2] = target: T1, MSR1-mediated Dil-AcLDL uptake in HEK293.Myc.hMSR1 cells (Homo sapiens, UniProt P21757); assay: Ligand uptake assay, Dil-AcLDL; assay type: cell-based; settings: 10 μg/mL Dil-AcLDL; for IC50: read-out: Dil-Acetylated LDL IC50; for Dil-Acetylated LDL % Inhibition: maximum inhibition
T1 construct: expressed in transfected cells; host or cells: HEK293 (lentiviral transduction, hygromycin selection)
T1 sequence (P21757 1-451): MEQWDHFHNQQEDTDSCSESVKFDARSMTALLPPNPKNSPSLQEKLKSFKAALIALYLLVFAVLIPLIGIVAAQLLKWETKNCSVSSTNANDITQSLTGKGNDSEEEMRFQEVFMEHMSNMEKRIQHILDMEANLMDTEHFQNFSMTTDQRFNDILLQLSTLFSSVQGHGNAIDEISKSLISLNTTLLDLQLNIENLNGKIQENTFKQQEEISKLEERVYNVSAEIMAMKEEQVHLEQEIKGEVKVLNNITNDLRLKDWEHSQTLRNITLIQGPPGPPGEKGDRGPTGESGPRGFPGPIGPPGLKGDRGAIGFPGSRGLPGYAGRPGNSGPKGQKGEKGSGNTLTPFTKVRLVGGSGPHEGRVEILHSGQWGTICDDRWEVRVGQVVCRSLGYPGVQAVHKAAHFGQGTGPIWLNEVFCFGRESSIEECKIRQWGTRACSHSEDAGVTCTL
Experimental: A bioassay was generated to assess the ability of the exemplary anti-MSR1 antibodies to regulate the uptake of certain MSR1 ligands.
Generation of MSR1-expressing cell lines for assay. […] The resulting cell line, referred to here as “HEK293.Myc.hMSR1”, was selected and maintained in DMEM containing 10% FIBS, NEAA, penicillin/streptomycin, L-glutamine, and 100 μg/mL hygromycin.
Ligand uptake assay. […] After 30 minutes, either oxidized or acetylated low-density lipoprotein (LDL) labeled with 1,1′dioctadecyl-3,3,3′,3′-tetramethylindocarbocyanine perchlorate (referred to as “Dil-OxLDL” or “Dil-AcLDL,” respectively) was added to the cells at a constant concentration of 10 μg/mL. […] Results were analyzed using nonlinear regression (4-parameter logistics) with the Prism 7 program to obtain EC50 and IC50 values. The percentage of inhibition was calculated with the Relative Fluorescent Unit (RFU) values by using the following equation: […]
In the equation, “RFUBaseline” is the fluorescence value from the cells treated with 10 μg/mL ligand without antibodies, “RFUInhibition” is the minimum fluorescence value with for a particular antibody with 10 μg/mL ligand, and “RFUBackground” is the fluorescence value from cells without any ligand or antibodies.

[3] = target: T2, HEK293.Myc.hMSR1 cells (human MSR1) (Homo sapiens, UniProt P21757); assay: Electrochemiluminescence antibody binding assay on MSR1-expressing cells; assay type: cell-based
T2 construct: expressed in transfected cells; host or cells: HEK293 (lentiviral transduction, hygromycin selection)
T2 sequence (P21757 1-451): T1 sequence (P21757 1-451)

[4] = target: T3, MSR1 on differentiated THP-1 cells (Homo sapiens, UniProt P21757); assay: Binding and internalization of cell-surface expressed MSR1 in differentiated THP-1 cells; assay type: cell-based; settings: 10 μg/mL antibody
T3 construct: endogenous in cells; host or cells: THP-1 cells differentiated with PMA
T3 sequence (P21757 1-451): T1 sequence (P21757 1-451)
Experimental: Exemplary anti-MSR1 antibodies were assessed for their ability to bind and internalize MSR1 on MSR1-expressing cells.
The THP-1 cells were allowed to differentiate for 4 days at 37° C. in 5% CO2. […] The remaining two plates were incubated at 37° C. for 1 hour followed by fixation and staining for 20 minutes using a solution of 4% PFA+5 μM DRAQ5 diluted in PBS (internalization plates). After fixation, all plates were washed once with PBS. […] The remaining plates were incubated with PBS only. Confocal images were acquired on the Opera Phenix (Perkin Elmer) at 40× magnification. […] The total binding at 4° C. (RFU values of 4° C. unquenched wells), total binding at 37° C. (RFU values of 37° C. unquenched wells), the total internalized RFU, and % Internalization were determined for each antibody as shown in Table 14.
For all calculations, background fluorescence from unstained wells was subtracted from every well. Total internalized RFU was calculated as follows: Total RFU of 37° C. unquenched samples−Surface RFU at 37° C. Surface RFU is defined as unquenched RFU at 37° C.−quenched RFU at 37° C.)/QE. QE (quenching efficiency) is defined as: 1−(Total RFU of 4° C. quenched sample/Total RFU of 4° C. unquenched sample). The % Internalization was determined from the following formula: (Total internalized RFU at 37° C./Total RFU at 37° C.)*100.

- IC50 [2]: 2.4 nM
- Dil-Acetylated LDL % Inhibition [2]: 65%
- Ratio of 11 nM Antibody Binding Signal (RLU) to isotype control, HEK293.Myc.hMSR1 [3]: 37
- % Internalization [4]: 78.5%
- Total Binding at 4° C. ([4]; 4° C.): 1800012
- Total Binding at 37° C. ([4]; 37° C.): 4110990
- Total Internalized RFU ([4]; 37° C.): 3226161 RFU
B1: H1H21227N-N297Q: "modified versions of 21227N (H1H21227N-N297Q and H1H21227N-N297D)"; anti-MSR1 antibody "with a N297Q single point mutation" (antibody, V domains shown)
VH: QVQLVQSGAEVKKPGASVKVSCKVSGYTLTELSIHWVRQVPGKGLEWMGGFDPEEGETIFAQEFRDRVTLTEDTSPDTAYMELSSLKSEDAAVYYCTTPRYCNNGICYDYWGQGTLVTVSS
VL: DIQMTQSPSSLSASVGDRVTITCRASQSISNYLNWYQQKPGKAPKLLIYTASSLQSGVPSRFSGSGSGTDFTLTISSLQTEDFATYYCQQSYSNFPITFGQGTRLEIKR
- B16F10.9 MFI [1]: 3287
- B16F10.9 S/N [1]: 1

- IC50 [2]: 2.1 nM
- Dil-Acetylated LDL % Inhibition [2]: 65%
- Ratio of 11 nM Antibody Binding Signal (RLU) to isotype control, HEK293.Myc.hMSR1 [3]: 37
B2: H1H21227N: "anti-MSR1 antibodies ... (21227N, 21231N, 21234N) were produced with the original human Fcγ portion"; "H1H" = human IgG1 Fc (antibody, V domains shown)
VH: B1 VH
VL: B1 VL
modifications: human IgG1 Fc
notes: "anti-MSR1 antibodies ; (21227N, 21231N, 21234N) were produced with the original human Fcγ portion"; "H1H" = human IgG1 Fc

- IC50 [2]: 3.5 nM
- Dil-Acetylated LDL % Inhibition [2]: 63%
- Ratio of 11 nM Antibody Binding Signal (RLU) to isotype control, HEK293.Myc.hMSR1 [3]: 61
B3: H1H21231N: "anti-MSR1 antibodies ... (21227N, 21231N, 21234N) were produced with the original human Fcγ portion"; "H1H" = human IgG1 Fc (antibody, V domains shown)
VH: EVQLVESGGGLVQPGGSLRLSCAASGFTFSDHYMDWVRQAPGKGLEWVGRTRNKANSHTTEYTASVTGRFTISRDDSRNSLYLQMNSLKTEDTAVYYCVRAGIIGTLFDYWGQGTLVTVSS
VL: B1 VL with S7F, N31S, Y32F, Y36F, L46F, T50A, T80P, N94S, F95P
modifications: human IgG1 Fc
notes: as for B2

Reference: patent publication US12497460B2, “Anti-MSR1 antibodies and methods of use thereof” (REGENERON PHARMACEUTICALS, INC., priority 2018, dated 2025)
